Assay [1] has as its target B2 receptor tagged with Rluc8 (B2-Rluc8) (human) (UniProt P30411). Nature of the assay: FRET or BRET; BRET1/eBRET in live HEK293FT cells, one BRET-tagged receptor and one BRET-tagged interacting protein coexpressed, no second receptor; ligand-induced BRET after AngII or BK, 37°C. Background: Bioluminescence resonance energy transfer reports proximity on the nanometre scale.

Assay [2] has as its target T1, Venus-tagged B2 receptor (B2-Venus) (human, UniProt P30411 1-391).
T1 construct: made by replacing the Rluc8 coding region of B2-Rluc8 with Venus cDNA; C-terminal end of the tag follows from the parent B2-Rluc8; source: HEK293FT, transiently transfected, in live cells; not shown: Venus, C-terminal, kept
T1 sequence (looked up): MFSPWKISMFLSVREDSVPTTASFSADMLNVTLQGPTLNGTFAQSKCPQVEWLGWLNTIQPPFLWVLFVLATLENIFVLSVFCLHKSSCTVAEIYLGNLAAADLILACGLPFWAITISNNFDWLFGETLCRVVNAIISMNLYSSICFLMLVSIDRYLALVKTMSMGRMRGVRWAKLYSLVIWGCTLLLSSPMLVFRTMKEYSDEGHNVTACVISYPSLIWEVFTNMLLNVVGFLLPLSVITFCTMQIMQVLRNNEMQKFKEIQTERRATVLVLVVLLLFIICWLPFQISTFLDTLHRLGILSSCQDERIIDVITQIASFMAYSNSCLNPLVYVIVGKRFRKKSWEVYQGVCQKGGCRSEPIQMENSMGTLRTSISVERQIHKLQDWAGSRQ
The description is as above. Conditions: partners not purified.

“NES-Venus-mGsq (Venus-tagged mini G protein)” displayed a pEC50 of BK (ligand-induced BRET) in assay [1] of 7.73.

B1: Rluc8-tagged GRK2 (GRK2-Rluc8) (enzyme, UniProt P25098 1-689, looked up)
chain: MADLEAVLADVSYLMAMEKSKATPAARASKKILLPEPSIRSVMQKYLEDRGEVTFEKIFSQKLGYLLFRDFCLNHLEEARPLVEFYEEIKKYEKLETEEERVARSREIFDSYIMKELLACSHPFSKSATEHVQGHLGKKQVPPDLFQPYIEEICQNLRGDVFQKFIESDKFTRFCQWKNVELNIHLTMNDFSVHRIIGRGGFGEVYGCRKADTGKMYAMKCLDKKRIKMKQGETLALNERIMLSLVSTGDCPFIVCMSYAFHTPDKLSFILDLMNGGDLHYHLSQHGVFSEADMRFYAAEIILGLEHMHNRFVVYRDLKPANILLDEHGHVRISDLGLACDFSKKKPHASVGTHGYMAPEVLQKGVAYDSSADWFSLGCMLFKLLRGHSPFRQHKTKDKHEIDRMTLTMAVELPDSFSPELRSLLEGLLQRDVNRRLGCLGRGAQEVKESPFFRSLDWQMVFLQKYPPPLIPPRGEVNAADAFDIGSFDEEDTKGIKLLDSDQELYRNFPLTISERWQQEVAETVFDTINAETDRLEARKKAKNKQLGHEEDYALGKDCIMHGYMSKMGNPFLTQWQRRYFYLFPNRLEWRGEGEAPQSLLTMEEIQSVEETQIKERKCLLLKIRGGKQFILQCDSDPELVQWKKELRDAYREAQQLVQRVPKMKNKPRSPVVELSKVPLVQRGSANGL
notes: GPCR kinase 2 (GRK2); construct synthesized by GeneArt; also called GPCR kinase 2; source: HEK293FT, transiently transfected, in live cells
Consider B1, for which the “pEC50 of BK (ligand-induced BRET)” value in assay [2] stood at 7.35.

Source of the values: PMC9204302, “Novel Pharmacology Following Heteromerization of the Angiotensin II Type 2 Receptor and the Bradykinin Type 2 Receptor” (Frontiers in Endocrinology, 2022).
